The text below walks through data of patent US20030134779A1, “Method and composition for treatment and/or prevention of antibiotic-resistant microorganism infections” (priority 2002, published 2003).

Common to all, as to format: cell-based, Staphylococcus aureus
One assay has as its system S. aureus ATCC 25923. Kind of assay: Cell morphology by transmission electron microscopy. Particulars: LF 9.1 μg/ml alone; 18-h. How it is done:
Bacterial cells were grown overnight on MHA or MHB containing sub-MICs of penicillin G with or without LF or LFC. Microorganisms were prepared for transmission electron microscopy by fixation with glutaraldehyde followed by ferritin labelling. This method allows good- preservation of capsular material. Briefly, bacterial cells grown in the presence or absence of antibiotics were fixed in cacodylate buffer (0.1 M, pH 7.0) containing 5% (v/v) glutaraldehyde, for 2 h at 20° C. Fixed microorganims were suspended in cacodylate buffer and allowed to react with the polycationic ferritin (Sigma Chemicals, St-Louis, Mo.; final concentration 1.0 mg/ml) for 30 min at 20° C. The reaction was slowed down by 10-fold dilution with buffer, and the microorganisms were centrifuged and washed three times in cacodylate buffer. Bacterial cells were then immobilized in 4% (w/v) agar, washed 5 times in cacodylate buffer and post-fixed with 2% (w/v) osmium tetroxide for 2 h. Washings were repeated as above, and the samples dehydrated in a graded series of acetone washes. Samples were then washed twice in propylene oxide and embedded in Spurr low-viscosity resin. Thin sections were post-stained with uranyl acetate and lead citrate and examined with an electron microscope (Philips 201) at an accelerating voltage of 60 kV.

The next assay concerns S. aureus SHY97-4320. Kind of assay: SDS-PAGE protein profile of whole cells. How it is done: Staphylococcus aureus SHY97-4320 cells growth in MHB containing test compounds were suspended in electrophoresis sample buffer containing 2% sodium dodecyl sulfate (SDS) and 5% 2-mercaptoethanol to a final concentration of 0.1 g per ml. The samples were heated to 100° C. for 5 min before being loaded for electrophoresis on a discontinuous 0.1% SDS-polyacrylamide gel (SDS PAGE) with 6% polyacrylamide stacking gel and 10 or 12% polyacrylamide running gel. Gels were run on a Mini-Protean® II apparatus (Bio Rad laboratories, Richmond, Calif.). Protein profiles were visualised by staining with coomassie brilliant blue R-250 or by silver staining.

Assay [1] has as its system β-lactamase (BlaZ) gene expression in S. aureus strain SHY97-4320. Kind of assay: BlaZ gene expression, real-time quantitative RT-PCR, and total RNA. How it is done:
Fresh MHB containing or not 8 μg/ml of penicillin G and/or 1 mg/ml of bovine LF (2×2 factorial design) was adjusted to an optical density at 540 nm of 0.04 with an overnight culture of S. aureus and then incubated at 37° C. with agitation (150 rpm). After 4 and 22-h of incubation, aliquots were removed to determine bacterial growth by viable count (colony forming unit per ml, cfu/ml), measuring the culture turbidity (OD540nm) with a spectrophotometer Philips PU and to measure β-lactamase activity in bacterial cells. Following culture under the same condition, bacterial cells were collected for RNA extraction.
Total bacterial RNA was prepared using the RNeasy minikit (Qiagen, Mississauga, ON, Canada). Washed bacteria were first treated with 50 μg/ml of lysostaphin (GramCracker, Ambion, Austin, Tex.) for 10 min at 37° C. and RNA was purified according to the manufacturer's protocol. Contaminating DNA was removed from total RNA by using 1 U of Rnase-free Dnase I (Gibco Life Technologies, Grand Island, N.Y.) in a 10 μl reaction mixture containing approximately 50 ng of total RNA per μl and 20mM Tris-HCl (pH 8.4), 2 mM MgCl2 and 50 mM KCl. The reaction mixture was incubated for 15 min at room temperature, and the Dnase I was inactivated by adding 1 μl of 25 mM EDTA to the mixture and incubating for 10 min at 65° C. before assessing quantity and purity. Amount of cellular RNA was then determined by measuring the OD260 nm and OD280 nm.
Real-Time fluorescence-based 5′ nuclease PCR which is a widely accepted method for measuring gene expression levels was used to quantify β-lactamase BlaZ RNA by RT-PCR on ABI Prism™ 7700 (TaqMan® ) sequence detector (PE Applied Biosystem, Foster City, Calif.). The forward primer, reverse.primer, and TaqMan probe for Real-Time RT-PCR amplification were designed with the PrimerExpress software (PE Applied Biosystem) to specifically amplify the. S. aureus BLAZ gene. Briefly, RNA (50 ng) was added to a 50 μl reaction mixture containing 25 μl of 2×RT-PCR One-Step Universal Master Mix, 1.25 μl of 40×MultiScribe and Rnase Inhibitor Mix, 4.5 μl of the forward primer (10 μM, 5′-[…]-3′, SEQ ID NO:3), 4.5 μl of the reverse primer (10 μM, 5′-[…]-3′, SEQ ID NO:4), and 1.25 μl of TaqMan probe (10 μM, 6FAM-[…]-TAMRA, SEQ ID NO:5). Reverse transcription with the recombinant Moloney Murine Leukemia Virus (M-MuLV) Reverse Transcriptase (0.25 U/μl) was conducted at 48° C. for 30 min. After initial activation of AmpliTaq Gold DNA polymerase (1.25 U/μl) at 95° C. for 10 min, 40 PCR cycles of 95° C. for 15 s and 60° C. for 1 min were performed. The cycle threshold value (CT), indicative of the quantity of target gene at which the fluorescence exceeds a pre-set threshold, was determined and compared to the CT of a standard curve containing known amounts of mRNA (1.1×10^2 to 1.1×10^9) from the BLAZ gene of S. aureus obtained by in vitro transcription. Statistical analysis were done on the LOG 10 of number of copies.

B1: LF: bovine lactoferrin, 80-kDa iron-binding glycoprotein found in milk (protein, UniProt P24627 20-708, looked up)
Lactotransferrin: APRKNVRWCTISQPEWFKCRRWQWRMKKLGAPSITCVRRAFALECIRAIAEKKADAVTLDGGMVFEAGRDPYKLRPVAAEIYGTKESPQTHYYAVAVVKKGSNFQLDQLQGRKSCHTGLGRSAGWIIPMGILRPYLSWTESLEPLQGAVAKFFSASCVPCIDRQAYPNLCQLCKGEGENQCACSSREPYFGYSGAFKCLQDGAGDVAFVKETTVFENLPEKADRDQYELLCLNNSRAPVDAFKECHLAQVPSHAVVARSVDGKEDLIWKLLSKAQEKFGKNKSRSFQLFGSPPGQRDLLFKDSALGFLRIPSKVDSALYLGSRYLTTLKNLRETAEEVKARYTRVVWCAVGPEEQKKCQQWSQQSGQNVTCATASTTDDCIVLVLKGEADALNLDGGYIYTAGKCGLVPVLAENRKSSKHSSLDCVLRPTEGYLAVAVVKKANEGLTWNSLKDKKSCHTAVDRTAGWNIPMGLIVNQTGSCAFDEFFSQSCAPGADPKSRLCALCAGDDQGLDKCVPNSKEKYYGYTGAFRCLAEDVGDVAFVKNDTVWENTNGESTADWAKNLNREDFRLLCLDGTRKPVTEAQSCHLAVAPNHAVVSRSDRAAHVKQVLLHQQALFGKNGKNCPDKFCLFKSETKNLLFNDNTECLAKLGGRPTYEEYLGTEYVTAIANLKKCSTSPLLEACAFLTR
In the case of B1, the cell morphology entry with S. aureus ATCC 25923 is on record as “no obvious effect”. For the same molecule, the “proteins of approximately 59, 42 and 27 kDa in protein profile” value in the assay with S. aureus SHY97-4320 (1 mg/ml LF in combination to 8 μg/ml penicillin G) is recorded as “absent”; in the assay on S. aureus SHY97-4320 (compound alone: 8 μg/ml penicillin G or 1 mg/ml LF, 4-h of growth), “absent”. For the same molecule, in assay [1] (LF 1 mg/ml and/or penicillin G), the “BlaZ total: total number of copies of BlaZ gene mRNA/ml of culture” value is given as 5.6 × 10^5 copies/ml of culture. Also, the “BlaZ: number of copies of BlaZ gene mRNA/50 ng of mRNA” value in assay [1] (LF 1 mg/ml and/or penicillin G) was 1.4 × 10^4 copies/50 ng of mRNA. For the same molecule, the “reduction of the mRNA level in bacteria” value in assay [1] (LF, P<0.001) worked out at 35%. The RNA in assay [1] (adjusted for an OD540nm of 1.0, LF 1 mg/ml and/or penicillin G) is given as 1.88 ± 0.68 :g/ml. Also, in assay [1] (simultaneous addition of 1 mg/ml of LF), the “penicillin G-induced increase of BlaZ mRNA” value is “completely prevented”.
